Data as given in article doi:10.1101/2023.07.27.550818 (bioRxiv, 2023).

Target: the molecule itself
Experiment: crystal structure

B1: PcaR (natural protein, P. putida, UniProt Q52154 1-291, looked up)
chain: MSDETLVNDPVNPEPARPASAAMAPPIVASPAKRIQAFTGDPDFMTSLARGLAVIQAFQERKRHLTIAQISHRTEIPRAAVRRCLHTLIKLGYATSDGRTYSLLPKVLTLGHAYLSSTPLAISAQPYLDRISDQLHEAANMATLEGDDILYIARSATVERLISVDLSVGGRLPAYCTSMGRILLAAMDDTSLREYLGRADLKARTSRTLHDPESLFACIQQVRAQGWCVVDQELEQGLRSIAVPIYDASGQVLAALNVSTHVGRVTRSELEQRFLPILLAASRDLCHQLFG
Does B1 bind?
Result: binds
